Results taken from US9669057.

Biological target: mouse CD40 (mouse) (UniProt P27512)
Assay: cell-based or functional assay

Sequence of UniProt P27512 (P27512 20-289): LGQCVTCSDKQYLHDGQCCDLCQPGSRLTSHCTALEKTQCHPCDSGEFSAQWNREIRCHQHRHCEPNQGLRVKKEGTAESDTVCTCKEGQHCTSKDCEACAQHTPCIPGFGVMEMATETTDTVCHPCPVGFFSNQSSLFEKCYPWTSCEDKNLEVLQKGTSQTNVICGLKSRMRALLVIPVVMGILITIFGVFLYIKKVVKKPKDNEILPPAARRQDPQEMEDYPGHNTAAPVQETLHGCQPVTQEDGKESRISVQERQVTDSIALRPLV

fold increase in frequency of cytoplasmic IL-10+ adult blood B cells, 48 h culture against 5 h L+PIM culture: 6 to 9 fold
reduction of LPS-induced IL-10 secretion by spleen B cells, ELISA of culture supernatant: > 68%
Substance: anti-mouse CD40 mAb (HM40-3) (antibody)
